According to patent publication US20210139545A1 (IBA, published 2021):

How the values were obtained:
[1] = target: T1, E. coli alkaline phosphatase Strep-tag®II fusion protein (E. coli, UniProt P00634 22-471 = phosphatase); assay: ELISA, mutein coated, BAP-StrepII titrated
T1 construct: mature; also called BAP-StrepII; BAP-StrepIII

[2] = target: T2, cytochrome b562 with C-terminally fused Strep-tagII (E. coli); assay: affinity chromatography, overloaded Sepharose column, washed, biotin elution
T2 construct: also called Cytb562-StrepII; Cytb562-StrepIII

[3] = target: T2, cytochrome b562 with C-terminally fused …; assay: affinity chromatography, capture from dilute solution (500 µg applied, 1 mg mutein)
[4] = target: T2, cytochrome b562 with C-terminally fused …; assay: affinity chromatography, retention after overload; tied to m45 by Table 9 (308 % against 11 %)
[5] = target: T1, E. coli alkaline phosphatase …; assay: ELISA, second experiment, mutein coated, BAP-StrepII titrated

Row | Binder | Kd [1] [nM] | Retained Cytb562-StrepII [2] [µg] | Retained Cytb562-StrepII per immobilized mutein [2] [µg/µg] | Retained Cytb562-StrepII per immobilized mutein relative to mutein “1” [2] [%] | yield of Cytb562-StrepII applied [3] [%] | (Δ(A405-A595)/Δt)max [1] [mOD] | KD(mutein“1”)/KDmutein [1] | retained Cytb562-StrepII relative to wt streptavidin [4] [fold] | Kd [5] [nM] | (Δ(A405-A595)/Δt)max [5] [mOD]
1 | mutein m402 (designed binder, Library 1 clone) EAGITGTWYNQLGSTFIVTAGADGALTGTYACARGNAECRYVLTGRYDSAPATDGSGTALGWTVAWKNNYRNAHSATTWSGQYVGGAEARINTQWLLTSGTTEANAWKSTLVGHDTFTKVKPSAAS | 92 | 111 | 0.14 | 111 | 31 | – | – | – | – | –
2 | mutein“1”-m111 (designed binder, Library 5 clone on mutein “1”) EAGITGTWYNQLGSTFIVTAGADGALTGTYVTARGNAESRYVLTGRYDSAPATDGSGTALGWTVAWKNNYRNAHSATTWSGQYVGGAEARINTQWLLTSGTTEYNALWSTLVGHDTFTKVKPSAAS | 13 | 318 | 0.31 | 246 | 67 | 492 | 8.5 | – | – | –
3 | mutein“1”-m45 (designed binder, Library 3 clone on mutein “1”) EAGITGTWYNQLGSTFIVTAGADGALTGTYVTARGNAESRYVLTGRYDSAPATDGSGTALGWTVAWKNNYRNAHSATTWSGQYVGGAEARINTQWLLTSGTTEYNAGFSTLVGHDTFTKVKPSAAS | 18 | 472 | 0.39 | 308 | 67 | 566 | 6.1 | 28 | – | –
4 | mutein“1”-m36 (designed binder, Library 3 clone on mutein “1”) EAGITGTWYNQLGSTFIVTAGADGALTGTYVTARGNAESRYVLTGRYDSAPATDGSGTALGWTVAWKNNYRNAHSATTWSGQYVGGAEARINTQWLLTSGTTEYNAFMSTLVGHDTFTKVKPSAAS | 12 | 429 | 0.32 | 254 | 61 | 945 | 9.2 | – | – | –
5 | mutein m4001 (designed binder, Library 2 clone) EAGITGTWYNQLGSTFIVTAGADGALTGTYACGRGNAECRYVLTGRYDSAPATDGSGTALGWTVAWKNNYRNAHSATTWSGQYVGGAEARINTQWLLTSGTTEANAWKSTLVGHDTFTKVKPSAAS | 20 | 175 | 0.16 | 127 | 34 | – | – | – | 27 | –
6 | mutein“1”-m4 (designed binder, Library 3 clone on mutein “1”) EAGITGTWYNQLGSTFIVTAGADGALTGTYVTARGNAESRYVLTGRYDSAPATDGSGTALGWTVAWKNNYRNAHSATTWSGQYVGGAEARINTQWLLTSGTTEDNAGFSTLVGHDTFTKVKPSAAS | 9 | 564 | 0.35 | 280 | 64 | 716 | 12.2 | – | 12 | 518
7 | mutein“1”-m23 (designed binder, Library 3 clone on mutein “1”) EAGITGTWYNQLGSTFIVTAGADGALTGTYVTARGNAESRYVLTGRYDSAPATDGSGTALGWTVAWKNNYRNAHSATTWSGQYVGGAEARINTQWLLTSGTTEYNAYASTLVGHDTFTKVKPSAAS | 12 | 479 | 0.31 | 245 | 60 | 968 | 9.2 | – | 13 | 644
8 | mutein“1”-m101 (designed binder, Library 5 clone on mutein “1”) EAGITGTWYNQLGSTFIVTAGADGALTGTYVTARGNAESRYVLTGRYDSAPATDGSGTALGWTVAWKNNYRNAHSATTWSGQYVGGAEARINTQWLLTSGTTEYNAFLSTLVGHDTFTKVKPSAAS | 14 | – | – | – | – | 589 | 7.9 | – | – | –
9 | mutein“1”-m41 (designed binder, Library 3 clone on mutein “1”) EAGITGTWYNQLGSTFIVTAGADGALTGTYVTARGNAESRYVLTGRYDSAPATDGSGTALGWTVAWKNNYRNAHSATTWSGQYVGGAEARINTQWLLTSGTTEAWYSTLVGHDTFTKVKPSAAS | 13 | 289 | 0.2 | 155 | 47 | 613 | 8.5 | – | – | –
10 | mutein“1”-m302 (designed binder, Library 7 clone on mutein “1”, 118 and 119 deleted) EAGITGTWYNQLGSTFIVTAGADGALTGTYVTARGNAESRYVLTGRYDSAPATDGSGTALGWTVAWKNNYRNAHSATTWSGQYVGGAEARINTQWLLTSGTTEHWYSTLVGHDTFTKVKPSAAS | 5 | 350 | 0.28 | 221 | 63 | 726 | 22 | – | – | –
11 | mutein“1”-m301 (designed binder, Library 7 clone on mutein “1”, 118 and 119 deleted) EAGITGTWYNQLGSTFIVTAGADGALTGTYVTARGNAESRYVLTGRYDSAPATDGSGTALGWTVAWKNNYRNAHSATTWSGQYVGGAEARINTQWLLTSGTTEHWMSTLVGHDTFTKVKPSAAS | 10 | 400 | 0.28 | 225 | 57 | 725 | 11 | – | – | –
12 | mutein“1”-m207 (designed binder, Library 6 clone on mutein “1”, 118 and 119 deleted) EAGITGTWYNQLGSTFIVTAGADGALTGTYVTARGNAESRYVLTGRYDSAPATDGSGTALGWTVAWKNNYRNAHSATTWSGQYVGGAEARINTQWLLTSGTTETWLSTLVGHDTFTKVKPSAAS | 27 | 358 | 0.29 | 229 | 55 | 493 | 4.1 | – | – | –
13 | mutein“1”-m212 (designed binder, Library 6 clone on mutein “1”, 118 and 119 deleted) EAGITGTWYNQLGSTFIVTAGADGALTGTYVTARGNAESRYVLTGRYDSAPATDGSGTALGWTVAWKNNYRNAHSATTWSGQYVGGAEARINTQWLLTSGTTEHWLSTLVGHDTFTKVKPSAAS | 17 | 390 | 0.25 | 197 | 47 | 607 | 6.5 | – | – | –
